# B1: Nuclear factor erythroid 2-related factor 2 (Mus musculus), Q60795 (parent)
# chain: MMDLELPPPGLQSQQDMDLIDILWRQDIDLGVSREVFDFSQRQKDYELEKQKKLEKERQEQLQKEQEKAFFAQFQLDEETGEFLPIQPAQHIQTDTSGSASYSQVAHIPKQDALYFEDCMQLLAETFPFVDDHESLALDIPSHAESSVFTAPHQAQSLNSSLEAAMTDLSSIEQDMEQVWQELFSIPELQCLNTENKQLADTTAVPSPEATLTEMDSNYHFYSSISSLEKEVGNCGPHFLHGFEDSFSSILSTDDASQLTSLDSNPTLNTDFGDEFYSAFIAEPSDGGSMPSSAAISQSLSELLDGTIEGCDLSLCKAFNPKHAEGTMEFNDSDSGISLNTSPSRASPEHSVESSIYGDPPPGFSDSEMEELDSAPGSVKQNGPKAQPAHSPGDTVQPLSPAQGHSAPMRESQCENTTKKEVPVSPGHQKAPFTKDKHSSRLEAHLTRDELRAKALHIPFPVEKIINLPVDDFNEMMSKEQFNEAQLALIRDIRRRGKNKVAAQNCRKRKLENIVELEQDLGHLKDEREKLLREKGENDRNLHLLKRRLSTLYLEVFSMLRDEDGKPYSPSEYSLQQTRDGNVFLVPKSKKPDTKKN
# B2: Astrotactin-1 (Homo sapiens), O14525-2 (parent)
# chain: MALAGLCALLACCWGPAAVLATAAGDVDPSKELECKLKSITVSALPFLRENDLSIMHSPSASEPKLLFSVRNDFPGEMVVVDDLENTELPYFVLEISGNTEDIPLVRWRQQWLENGTLLFHIHHQDGAPSLPGQDPTEEPQHESAEEELRILHISVMGGMIALLLSILCLVMILYTRRRWCKRRRVPQPQKSASAEAANEIHYIPSVLIGGHGRESLRNARVQGHNSSGTLSIRETPILDGYEYDITDLRHHLQRECMNGGEDFASQVTRTLDSLQGCNEKSGMDLTPGSDNAKLSLMNKYKDNIIATSPVDSNHQQATLLSHTSSSQRKRINNKARAGSAFLNPEGDSGTEAENDPQLTFYTDPSRSRRRSRVGSPRSPVNKTTLTLISITSCVIGLVCSSHVNCPLVVKITLHVPEHLIADGSRFILLEGSQLDASDWLNPAQVVLFSQQNSSGPWAMDLCARRLLDPCEHQCDPETGECLCYEGYMKDPVHKHLCIRNEWGTNQGPWPYTIFQRGFDLVLGEQPSDKIFRFTYTLGEGMWLPLSKSFVIPPAELAINPSAKCKTDMTVMEDAVEVREELMTSSSFDSLEVLLDSFGPVRDCSKDNGGCSKNFRCISDRKLDSTGCVCPSGLSPMKDSSGCYDRHIGVDCSDGFNGGCEQLCLQQMAPFPDDPTLYNILMFCGCIEDYKLGVDGRSCQLITETCPEGSDCGESRELPMNQTLFGEMFFGYNNHSKEVAAGQVLKGTFRQNNFARGLDQQLPDGLVVATVPLENQCLEEISEPTPDPDFLTGMVNFSEVSGYPVLQHWKVRSVMYHIKLNQVAISQALSNALHSLDGATSRADFVALLDQFGNHYIQEAIYGFEESCSIWYPNKQVQRRLWLEYEDISKGNSPSDESEERERDPKVLTFPEYITSLSDSGTKHMAAGVRMECHSKGRCPSSCPLCHVTSSPDTPAEPVLLEVTKAAPIYELVTNNQTQRLLQEATMSSLWCSGTGDVIEDWCRCDSTAFGADGLPTCAPLPQPVLRLSTVHEPSSTLVVLEWEHSEPPIGVQIVDYLLRQEKVTDRMDHSKVETETVLSFVDDIISGAKSPCAMPSQVPDKQLTTISLIIRCLEPDTIYMFTLWGVDNTGRRSRPSDVIVKTPCPVVDDVKAQEIADKIYNLFNGYTSGKEQQTAYNTLLDLGSPTLHRVLYHYNQHYESFGEFTWRCEDELGPRKAGLILSQLGDLSSWCNGLLQEPKISLRRSSLKYLGCRYSEIKPYGLDWAELSRDLRKTCEEQTLSIPYNDYGDSKEI
# B3: Astrotactin-1 (Mus musculus), Q61137-2 (parent)
# chain: MALAGLCALFACCWGPAAVLATAAGDVDPSKELECKLKSITVSALPFLRENDLSIMHSPSASEPKLLFSVRNDFPGEMVVVDDLENTELPYFVLEISGNTEDIPLVRWRQQWLENGTLLFHIHHQDGAPSLPGQDPTEEPQHESAEEELRILHISVMGGMIALLLSILCLVMILYTRRRWCKRRRVPQPQKSASAEAANEIHYIPSVLIGGHGRESLRNARVQGHNSSGTLSIRETPILDGYEYDITDLRHHLQRECMNGGEDFASQVTRTLDSLQGCNEKSGMDLTPGSDNAKLSLMNKYKDNIIATSPVDSNHQQATLLSHTSSSQRKRINNKARAGSAFLNPEGDSSTEAENDPQLTFYTDPSRSRRRSRVGSPRSPVNKTTLTLISVTSCVIGLVCSSHVSCPLVVKITLHVPEHLIADGSRFILLEGSQLDASDWLNPAQVVLFSQQNSSGPWAMDLCARRLLDPCEHQCDPETGECLCYEGYMKDPVHKHLCIRNEWGTNQGPWPYTIFQRGFDLVLGEQPSDKIFRFTYTLGEGMWLPLSKSFVIPPAELAINPSAKCKTDMTVMEDAVEVREELMTSSSFDSLEVLLDSFGPVRDCSKDNGGCSKNFRCISDRKLDSTGCVCPSGLSPMKDSSGCYDRHIGVDCSDGFNGGCEQLCLQQMAPFPEDPTLYNILMFCGCIEDYKLGVDGRSCQLVTETCPEGGDCGESREVPMNQTLFGEMFFGYNNQSKEVATGQVLKGTFRQNNFARGLDQQLPDGLVVASVPLENQCLEEISEPTPDPDFLTGMVNFSEVSGYPVLQHWKVRSVMYHIKLNQAAISQAFSNALHSLDGATSRADFVALLDQFGNHYIQEAVYGFEESCSIWYPNKQVQRRLWLEYEDISKGNSPSDESEERERDPKVLTFPEYIASLSDSGTKRMAAGVRMECQSKGRCPSSCPLCHVTSSPETPAEPVLLEVTRASPIYELVTNNQTQRLLQEATMSSLWCSGTGDVIEDWCRCDSTAFGADGLPTCAPLPQPVLRLSTVHEPSSNLVVLEWEHSEPPIGVQIVDYLIRQEKVTDRMDHSKVETETVLSFVDDIISGAKAPCAMPSQVPDKQLTTISLIIRCLEPDTIYMFTLWGVDNTGRRSRPSDVIVKTPCPVVDDVKAQEIADKIYNLFNGYTSGKEQQTAYNTLLDLGSPTLHRVLYHYNQHYESFGEFTWRCEDELGPRKAGLILSQLGDLSSWCNGLLQEPKISLRRGSLKYLGCRYSEIKPYGLDWSELSRDLRKTCEEQTLSVPYNDYGDSKDI
# Variants of: B1
# Settings: with keap1_mouse Keap1, Q9Z2X8
row,effect of a mutation on the interaction,Variant
1,disrupting interaction strength,MMDLELPPPGLQSQQDMDLIDILWRQDIDLGVSREVFDFSQRQKDYELEKQKKLEKERQEQLQKEQEKAFFAQFQLAEATGEFLPIQPAQHIQTDTSGSASYSQVAHIPKQDALYFEDCMQLLAETFPFVDDHESLALDIPSHAESSVFTAPHQAQSLNSSLEAAMTDLSSIEQDMEQVWQELFSIPELQCLNTENKQLADTTAVPSPEATLTEMDSNYHFYSSISSLEKEVGNCGPHFLHGFEDSFSSILSTDDASQLTSLDSNPTLNTDFGDEFYSAFIAEPSDGGSMPSSAAISQSLSELLDGTIEGCDLSLCKAFNPKHAEGTMEFNDSDSGISLNTSPSRASPEHSVESSIYGDPPPGFSDSEMEELDSAPGSVKQNGPKAQPAHSPGDTVQPLSPAQGHSAPMRESQCENTTKKEVPVSPGHQKAPFTKDKHSSRLEAHLTRDELRAKALHIPFPVEKIINLPVDDFNEMMSKEQFNEAQLALIRDIRRRGKNKVAAQNCRKRKLENIVELEQDLGHLKDEREKLLREKGENDRNLHLLKRRLSTLYLEVFSMLRDEDGKPYSPSEYSLQQTRDGNVFLVPKSKKPDTKKN [D77A;E79A]

# Variants of: B2
# Settings: with keap1_human KEAP1, Q14145
# Chain of keap1_human KEAP1, Q14145 (Q14145 whole entry): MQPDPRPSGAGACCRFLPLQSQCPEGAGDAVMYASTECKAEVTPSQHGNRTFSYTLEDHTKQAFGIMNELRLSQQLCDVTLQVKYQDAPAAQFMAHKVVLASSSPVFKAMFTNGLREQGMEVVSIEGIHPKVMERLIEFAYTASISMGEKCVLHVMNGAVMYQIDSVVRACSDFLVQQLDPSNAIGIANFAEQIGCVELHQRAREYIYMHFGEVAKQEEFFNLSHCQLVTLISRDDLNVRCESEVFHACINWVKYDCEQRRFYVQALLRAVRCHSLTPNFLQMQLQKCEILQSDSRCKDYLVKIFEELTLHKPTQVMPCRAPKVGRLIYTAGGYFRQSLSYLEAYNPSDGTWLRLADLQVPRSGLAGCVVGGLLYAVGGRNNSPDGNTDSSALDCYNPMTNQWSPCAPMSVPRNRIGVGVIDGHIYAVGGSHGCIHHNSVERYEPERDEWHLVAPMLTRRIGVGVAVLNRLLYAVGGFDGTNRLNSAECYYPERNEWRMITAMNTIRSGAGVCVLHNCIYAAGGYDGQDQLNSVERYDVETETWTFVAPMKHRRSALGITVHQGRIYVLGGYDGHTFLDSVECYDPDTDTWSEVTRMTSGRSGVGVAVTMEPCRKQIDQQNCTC
row,effect of a mutation on the interaction,Variant
1,increasing interaction strength,C482S;C484S
2,with no effect,C475S;C482S
3,with no effect,C484S
4,with no effect,C482S
5,decreasing interaction strength,C475S;C484S
6,disrupting interaction strength,D476A;E478A
7,decreasing interaction strength,C475S
8,with no effect,C475L

# Variants of: B2
# Settings: with keap1_human KEAP1, Q14145
# Remark: another data set of the same source
row,effect of a mutation on the interaction,Variant
1,decreasing interaction strength,D476A;E478A

# Variants of: B3
# Settings: with keap1_mouse Keap1, Q9Z2X8
# Target sequence in this assay (Q9Z2X8 whole entry): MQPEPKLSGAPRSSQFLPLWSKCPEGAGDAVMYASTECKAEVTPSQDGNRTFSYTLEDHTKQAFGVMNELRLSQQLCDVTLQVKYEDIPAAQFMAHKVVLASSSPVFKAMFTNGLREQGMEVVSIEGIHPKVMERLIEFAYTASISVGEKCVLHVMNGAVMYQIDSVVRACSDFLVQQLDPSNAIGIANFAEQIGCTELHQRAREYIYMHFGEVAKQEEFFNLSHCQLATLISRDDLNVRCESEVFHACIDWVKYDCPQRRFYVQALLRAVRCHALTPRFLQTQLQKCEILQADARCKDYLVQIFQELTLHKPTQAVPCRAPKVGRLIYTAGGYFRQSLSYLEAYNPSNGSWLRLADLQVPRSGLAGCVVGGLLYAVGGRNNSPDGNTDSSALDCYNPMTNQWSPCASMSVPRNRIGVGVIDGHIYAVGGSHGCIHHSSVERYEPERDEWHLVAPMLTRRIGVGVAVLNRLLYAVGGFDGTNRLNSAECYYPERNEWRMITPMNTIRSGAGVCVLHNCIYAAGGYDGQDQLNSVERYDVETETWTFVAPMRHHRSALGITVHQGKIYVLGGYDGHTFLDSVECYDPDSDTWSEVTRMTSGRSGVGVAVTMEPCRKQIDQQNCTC
row,effect of a mutation on the interaction,Variant
1,with no effect,D476A;E478A

# — IntAct's records for PubMed 31169361
